Data: patent publication US20130236473A1, “THERAPEUTIC AGENTS AND PROPHYLACTIC AGENTS FOR SYMPTOMS ACCOMPANYING AUTOIMMUNE DISEASES, INFLAMMATORY DISEASES, ALLERGY DISEASES AND ORGAN TRANSPLANTS” (OSAKA UNIVERSITY, priority 2010, published 2013)

System: IL-6 amplifier
Assay: Reference Example 3: effect of growth factors on mIL-6 protein production in BC-1 cells (ELISA)
Type: cell-based, mouse
Conditions: 24 hours, hIL-6/6R and mIL-17A each 50 ng/ml, growth factor added, versus none added
Procedure: 2×10^5 mouse BC-1 cells were cultured for 24 hours in an RPMI 1640 medium containing hIL-6/6R proteins each at 50 ng/ml and mIL-17A protein at 50 ng/ml under the condition in which 100 ng/ml of mouse EGF protein (R&D Systems, Inc.), 100 ng/ml of human HB-EGF protein (R&D Systems, Inc.), 0.1, 1, 10, or 100 ng/ml of mouse epiregulin protein (R&D Systems, Inc.), 50 ng/ml of mouse VEGF protein (R&D Systems, Inc.), 50 ng/ml of mouse FGF7 protein (R&D Systems, Inc.), or 300 ng/ml of mPDGF-CC protein (R&D Systems, Inc.) was separately added. Mouse BC-1 cells cultured under the condition in which only hIL-6/6R proteins and mIL-17A protein were added served as a control group.
After the culture, the production amount of mIL-6 protein under each condition was quantified by an ELISA method in the same manner as in Reference Example 1. FIGS. 5 and 6 show the results.

B1: HB-EGF protein: human HB-EGF protein (R&D Systems, Inc.), ligand of ErbB1 protein (protein)
chain: DLQEADLDLLRVTLSSKPQALATPNKEEHGKRKKKGKGLGKKRDPCLRKYKDFCIHGECKYVKELRAPSCICHPGYHGERCHGLSL
production amount of mIL-6 protein: significantly (p value <0.01) increased

B2: FGF7 protein: mouse FGF7 protein (R&D Systems, Inc.), not a ligand of ErbB1 protein (protein, UniProt P36363 32-194, looked up)
Fibroblast growth factor 7: CNDMSPEQTATSVNCSSPERHTRSYDYMEGGDIRVRRLFCRTQWYLRIDKRGKVKGTQEMKNSYNIMEIRTVAVGIVAIKGVESEYYLAMNKEGKLYAKKECNEDCNFKELILENHYNTYASAKWTHSGGEMFVALNQKGIPVKGKKTKKEQKTAHFLPMAIT
production amount of mIL-6 protein: no significant difference
